± gives the uncertainty stated by the source.
Assay: self-splicing fitness, log relative to wild type (ln ratio); higher = more splicing; Tetrahymena group I intron in knt gene, E. coli kanamycin selection, DiMSum; sequences stand for … in CUCUCU…GGAGGGAAAAGUUAUCAGGCAUGCACCUGGUAGCUAGUCUUUAAACCAAUAGAUUGCAUCGGUUUAAAAGGCAAGACCGUCAAAUUGCGGGAAAGGGGUCAACAGCCGUUCAGUACCAAGUCUCAGGGGAAACUUUGAGAUGGCCUUGCAAAGGGUAUGGUAAUAAGCUGACGGACAUGGUCCUAACCACGCAGCCAAGUCCUAAGUCAACAGAUCUUCUGUUGAUAUGGAUGCAGUUCACAGACUAAAUGUCGGUCGGGGAAGAUGUAUUCUUCUCAUAAGAUAUAGUCGGACCUCUCCUUAAUGGGAGCUAGCGGAUGAAGUGAUGCAACACUGGAGCCGCUGGGAACUAAUUUGUAUGCGAAAGUAUAUUGAUUAGUUUUGGAGUACUCGUGGUCG
In short: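 Fitness was computed with DiMSum as the error-weighted combination of replicate fold changes, kanamycin versus none, each normalised to wild type. The library randomised all eight intron nucleotides of the P1ex region, with the intron placed in the knt kanamycin-resistance gene on pET-22b(+) in E. coli BL21(DE3). Six replicate transformations were grown overnight at 37°C or 30°C on LB agar with or without 25 μg/mL kanamycin, plus 100 μg/mL carbenicillin, 50 μM IPTG and 0.2% rhamnose. Pooled colonies were amplicon-sequenced on an Illumina HiSeq 2500.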

Row | Sequence | self-splicing fitness (ln) (30 °C) | self-splicing fitness (ln) (37 °C)
1 | UUGAAGCAAUAUUACGCUCA | -0.439 ± 0.12 | 1.17 ± 0.19
2 | UUGAAGCAAUAUUACGGACA | 0.534 ± 0.1 | 0.655 ± 0.14
3 | UUGAAGCAAUAUUACGGAGU | -2.51 ± 0.17 | -1.83 ± 0.18
4 | UUGAAGCAAUAUUACGGGUU | -1.66 ± 0.093 | -1.66 ± 0.16
5 | UUGAAGCAAUAUUACGGUAG | -0.0974 ± 0.088 | 0.0801 ± 0.12
6 | UUGAAGCAAUAUUACGGUGG | -0.88 ± 0.059 | -0.498 ± 0.11
7 | UUGAAGCAAUAUUACGGUUA | -0.344 ± 0.066 | 0.471 ± 0.086
8 | UUGAAGCAAUAUUACGGUUU | -2.88 ± 0.11 | -2.69 ± 0.19
9 | UUGAAGCAAUAUUACGUAAA | -1.42 ± 0.062 | -0.368 ± 0.081
10 | UUGAAGCAAUAUUACGUAGC | -3.42 ± 0.28 | -2.53 ± 0.33
11 | UUGAAGCAAUAUUACGUCCA | 0.231 ± 0.094 | 0.472 ± 0.12
12 | UUGAAGCAAUAUUACGUGAA | -1.92 ± 0.26 | -0.781 ± 0.22
13 | UUGAAGCAAUAUUACGUUGG | -1.18 ± 0.089 | -0.305 ± 0.15
14 | UUGCAGCAAUAUUACGAAGA | -2.37 ± 0.21 | -1.57 ± 0.18
15 | UUGCAGCAAUAUUACGAAGG | -3.92 ± 0.28 | -1.53 ± 0.2
16 | UUGCAGCAAUAUUACGAAUG | -1.98 ± 0.086 | -0.713 ± 0.1
17 | UUGCAGCAAUAUUACGACAC | -1.37 ± 0.19 | -1.22 ± 0.47
18 | UUGCAGCAAUAUUACGACAU | -0.522 ± 0.012 | 0.00633 ± 0.032
19 | UUGCAGCAAUAUUACGAGAA |  | -1.47 ± 0.34
20 | UUGCAGCAAUAUUACGAGCC |  | -2.7 ± 0.31
21 | UUGCAGCAAUAUUACGAUCG | -1.13 ± 0.1 | -0.473 ± 0.14
22 | UUGCAGCAAUAUUACGAUGG | -0.811 ± 0.14 | -1.07 ± 0.19
23 | UUGCAGCAAUAUUACGAUUG | -1.62 ± 0.32 | -0.337 ± 0.21
24 | UUGCAGCAAUAUUACGGAAC | -2.24 ± 0.32 | 
25 | UUGCAGCAAUAUUACGGAGA | -1.85 ± 0.12 | -1.08 ± 0.096
26 | UUGCAGCAAUAUUACGGAUA | -1.92 ± 0.15 | -1.12 ± 0.17

Row | Sequence | self-splicing fitness (ln) (30 °C) | self-splicing fitness (ln) (37 °C)
27 | UUGCAGCAAUAUUACGGGCU | -1.6 ± 0.16 | -1.17 ± 0.22
28 | UUGCAGCAAUAUUACGGGUG | -1.7 ± 0.081 | -1.59 ± 0.13
29 | UUGCAGCAAUAUUACGGGUU | -3.77 ± 0.25 | -2.15 ± 0.21
30 | UUGCAGCAAUAUUACGGUCU | -2.05 ± 0.092 | -1.26 ± 0.092
31 | UUGCAGCAAUAUUACGUAUA | -1.32 ± 0.12 | -1.01 ± 0.12
32 | UUGCAGCAAUAUUACGUGCC | -2.11 ± 0.14 | -1.18 ± 0.15
33 | UUGCAGCAAUAUUACGUGGG | -3.24 ± 0.12 | -2.8 ± 0.17
34 | UUGCAGCAAUAUUACGUUAC | -2.77 ± 0.15 | -2.18 ± 0.17
35 | UUGCAGCAAUAUUACGUUCU | -2.44 ± 0.12 | -0.872 ± 0.11
36 | UUGCAGCAAUAUUACGUUUG | -2.14 ± 0.14 | -0.998 ± 0.14
37 | UUGGAGCAAUAUUACGAAUA |  | -2.1 ± 0.46
38 | UUGGAGCAAUAUUACGACUA | -1.58 ± 0.41 | 
39 | UUGGAGCAAUAUUACGACUU | -1.94 ± 0.19 | -0.866 ± 0.28
40 | UUGGAGCAAUAUUACGCCAA | -1.49 ± 0.44 | 
41 | UUGGAGCAAUAUUACGCGAA |  | -1.4 ± 0.29
42 | UUGGAGCAAUAUUACGCGCG | -2.3 ± 0.11 | -0.8 ± 0.1
43 | UUGGAGCAAUAUUACGCGGC |  | -1.26 ± 0.41
44 | UUGGAGCAAUAUUACGCUCC | -2.79 ± 0.33 | -0.876 ± 0.46
45 | UUGGAGCAAUAUUACGGAAA | -3.48 ± 0.47 | -1.64 ± 0.24
46 | UUGGAGCAAUAUUACGGCCG | -1.89 ± 0.3 | -0.616 ± 0.29
47 | UUGGAGCAAUAUUACGGCCU | -2.26 ± 0.29 | -1.25 ± 0.27
48 | UUGGAGCAAUAUUACGGGCU |  | -2.95 ± 0.34
49 | UUGGAGCAAUAUUACGGUAA | -1.27 ± 0.26 | -1.01 ± 0.27
50 | UUGGAGCAAUAUUACGGUUU | -3.38 ± 0.31 | -2.9 ± 0.47
51 | UUGGAGCAAUAUUACGUAGA | -3.22 ± 0.27 | -1.77 ± 0.18
52 | UUGGAGCAAUAUUACGUAGG | -3.11 ± 0.23 | -1.86 ± 0.15

Row | Sequence | self-splicing fitness (ln) (30 °C) | self-splicing fitness (ln) (37 °C)
53 | UUGGAGCAAUAUUACGUAUA | -2.08 ± 0.44 | 
54 | UUGGAGCAAUAUUACGUGAG | -1.84 ± 0.13 | -1.54 ± 0.2
55 | UUGGAGCAAUAUUACGUUAC | -3.66 ± 0.33 | -2.25 ± 0.24
56 | UUGGAGCAAUAUUACGUUUA | -2.44 ± 0.44 | 
57 | UUGUAGCAAUAUUACGAAAG | -2.43 ± 0.32 | -2.69 ± 0.34
58 | UUGUAGCAAUAUUACGAAUG | -3.32 ± 0.41 | -1.93 ± 0.29
59 | UUGUAGCAAUAUUACGACCG | -0.716 ± 0.36 | -0.156 ± 0.26
60 | UUGUAGCAAUAUUACGACGA | -1.08 ± 0.26 | -0.0034 ± 0.36
61 | UUGUAGCAAUAUUACGACUU | -0.894 ± 0.3 | 0.769 ± 0.36
62 | UUGUAGCAAUAUUACGAGUC | -3.94 ± 0.42 | -2.67 ± 0.32
63 | UUGUAGCAAUAUUACGAUUA | -0.945 ± 0.11 | -0.211 ± 0.1
64 | UUGUAGCAAUAUUACGCAGA | -2.2 ± 0.35 | -0.763 ± 0.28
65 | UUGUAGCAAUAUUACGCCGC |  | -2.68 ± 0.4
66 | UUGUAGCAAUAUUACGCCUA | -0.297 ± 0.12 | 0.0606 ± 0.13
67 | UUGUAGCAAUAUUACGCCUC | -2.07 ± 0.48 | 
68 | UUGUAGCAAUAUUACGCCUU | -0.585 ± 0.17 | 0.0387 ± 0.17
69 | UUGUAGCAAUAUUACGCUUG | -0.622 ± 0.12 | -0.277 ± 0.13
70 | UUGUAGCAAUAUUACGCUUU |  | -2.81 ± 0.31
71 | UUGUAGCAAUAUUACGGAGA |  | -2.21 ± 0.42
72 | UUGUAGCAAUAUUACGGAUC | -3.53 ± 0.3 | -2.48 ± 0.26
73 | UUGUAGCAAUAUUACGGCCU | -0.844 ± 0.2 | -0.408 ± 0.25
74 | UUGUAGCAAUAUUACGGGCC |  | -1.69 ± 0.38
75 | UUGUAGCAAUAUUACGGUGU | -2.41 ± 0.42 | -2.3 ± 0.26
76 | UUGUAGCAAUAUUACGGUUA | -1.41 ± 0.14 | -0.784 ± 0.13
77 | UUGUAGCAAUAUUACGUAGC | -3.44 ± 0.31 | -2.87 ± 0.25
78 | UUGUAGCAAUAUUACGUCAG | -1.12 ± 0.22 | -0.45 ± 0.19

Row | Sequence | self-splicing fitness (ln) (30 °C) | self-splicing fitness (ln) (37 °C)
79 | UUGUAGCAAUAUUACGUGCA | -2.4 ± 0.15 | -1.14 ± 0.18
80 | UUGUAGCAAUAUUACGUGUC | -3.17 ± 0.15 | 
81 | UUUAAGCAAUAUUACGAAUC | -2.96 ± 0.28 | -1.04 ± 0.25
82 | UUUAAGCAAUAUUACGAGCA | -1.38 ± 0.21 | -0.686 ± 0.22
83 | UUUAAGCAAUAUUACGAGCU | -2.94 ± 0.22 | -0.0484 ± 0.17
84 | UUUAAGCAAUAUUACGCACA | -0.157 ± 0.068 | 0.181 ± 0.086
85 | UUUAAGCAAUAUUACGCCAU |  | -2.36 ± 0.29
86 | UUUAAGCAAUAUUACGCCGU | -1.49 ± 0.41 | -1.84 ± 0.27
87 | UUUAAGCAAUAUUACGCUAG | -1.54 ± 0.15 | -0.671 ± 0.2
88 | UUUAAGCAAUAUUACGCUGA | -2.47 ± 0.2 | -0.978 ± 0.15
89 | UUUAAGCAAUAUUACGCUUC | -2.24 ± 0.35 | 
90 | UUUAAGCAAUAUUACGGAAU | -3.63 ± 0.26 | -2.36 ± 0.33
91 | UUUAAGCAAUAUUACGGCCG | -0.19 ± 0.21 | -0.0514 ± 0.26
92 | UUUAAGCAAUAUUACGGCGC | -1.15 ± 0.17 | -0.784 ± 0.23
93 | UUUAAGCAAUAUUACGGCUU | -1.8 ± 0.14 | -1.86 ± 0.27
94 | UUUAAGCAAUAUUACGGGAC | -1.77 ± 0.16 | -2 ± 0.42
95 | UUUAAGCAAUAUUACGGGCU | -2.91 ± 0.3 | -2.18 ± 0.3
96 | UUUAAGCAAUAUUACGGUGA | -1.11 ± 0.11 | -0.554 ± 0.12
97 | UUUAAGCAAUAUUACGGUGU | -3.85 ± 0.28 | -2.3 ± 0.35
98 | UUUAAGCAAUAUUACGUAAU | -2.15 ± 0.11 | -1.74 ± 0.12
99 | UUUAAGCAAUAUUACGUACA | -0.498 ± 0.12 | 0.0487 ± 0.14
100 | UUUAAGCAAUAUUACGUCAG | -0.728 ± 0.12 | -0.571 ± 0.12
101 | UUUAAGCAAUAUUACGUGAC | -3.33 ± 0.21 | -2.11 ± 0.21
